Numbering of substitutions follows the chain as printed.
T1: mStau2 dsRBD2 (Mus musculus, UniProt Q8CJ67 95-181)
T1 sequence: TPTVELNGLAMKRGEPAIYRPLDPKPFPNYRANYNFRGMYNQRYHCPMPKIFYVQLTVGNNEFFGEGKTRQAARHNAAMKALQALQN

T2: mStau2 dsRBD1-2 F157A (Mus musculus, UniProt Q8CJ67 8-181, F157A)
T2 sequence: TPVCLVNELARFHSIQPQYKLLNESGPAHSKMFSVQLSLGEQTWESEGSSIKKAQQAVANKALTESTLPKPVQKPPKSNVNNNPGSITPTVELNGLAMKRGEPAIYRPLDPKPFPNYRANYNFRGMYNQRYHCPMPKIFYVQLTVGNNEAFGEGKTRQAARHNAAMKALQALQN

T3: mStau2 dsRBD1-2 H36A (Mus musculus, UniProt Q8CJ67 8-181, H36A)
T3 sequence: T2 sequence with H29A, A150F

T4: mStau2 dsRBD1-2 K59A (Mus musculus, UniProt Q8CJ67 8-181, K59A)
T4 sequence: T2 sequence with K52A, A150F

T5: mStau2 dsRBD1 (Mus musculus, UniProt Q8CJ67 8-75)
T5 sequence: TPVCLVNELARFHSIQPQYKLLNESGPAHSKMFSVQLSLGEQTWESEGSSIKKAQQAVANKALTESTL

T6: mStau2 dsRBD1-4 (Mus musculus, UniProt Q8CJ67 8-375)
T6 sequence: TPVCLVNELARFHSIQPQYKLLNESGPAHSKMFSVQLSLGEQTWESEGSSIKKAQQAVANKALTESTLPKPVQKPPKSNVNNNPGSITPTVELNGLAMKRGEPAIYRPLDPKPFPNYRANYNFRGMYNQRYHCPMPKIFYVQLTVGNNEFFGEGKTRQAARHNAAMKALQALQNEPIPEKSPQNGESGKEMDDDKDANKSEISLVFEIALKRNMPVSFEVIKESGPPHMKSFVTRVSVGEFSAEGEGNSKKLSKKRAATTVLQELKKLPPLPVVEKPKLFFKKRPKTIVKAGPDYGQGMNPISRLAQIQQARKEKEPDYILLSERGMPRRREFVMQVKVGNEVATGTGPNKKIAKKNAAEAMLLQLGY

B1: SRS2+5 (structured_RNA)
RNA: GGUAUAUACAUGCACAUGCAAUUUGUGUAUGUGUAUGUAUAUA
B2: SRS* (SRS3) (structured_RNA)
RNA: GGUAUGUGUGAAUGUGCAUGAAUAUAUAUAUAUAUGCAUAUAUAUAUUUGUAUAUGUUCACACAUG

What was measured:
[1] = target: T1, mStau2 dsRBD2; experiment: SPR; Hill n 1.3; SPR: HBS-EP (10 mM HEPES pH 7.4, 150 mM NaCl, 3 mM EDTA, 0.005% P20); EMSA: 5 nM RNA, protein buffer (40 mM Bis-Tris pH 7, 150 mM NaCl, 2 mM DTT presumed), 4% glycerol, 30 ug/mL yeast tRNA, RT; NMR: 150 mM NaCl, 20 mM Na phosphate pH 7.0, 5 mM DTT, 298 K; settings: protein: recombinant; label: 5' 32P (EMSA); biotin (SPR); hairpin, 18 bp stem
[2] = target: T2, mStau2 dsRBD1-2 F157A; experiment: SPR; Hill n 1.5; stable kinetics; SPR: HBS-EP (10 mM HEPES pH 7.4, 150 mM NaCl, 3 mM EDTA, 0.005% P20); EMSA: 5 nM RNA, protein buffer (40 mM Bis-Tris pH 7, 150 mM NaCl, 2 mM DTT presumed), 4% glycerol, 30 ug/mL yeast tRNA, RT; NMR: 150 mM NaCl, 20 mM Na phosphate pH 7.0, 5 mM DTT, 298 K; settings: protein: recombinant; label: 5' 32P (EMSA); biotin (SPR); hairpin, 18 bp stem
[3] = target: T3, mStau2 dsRBD1-2 H36A; experiment: SPR; Hill n 0.9; SPR: HBS-EP (10 mM HEPES pH 7.4, 150 mM NaCl, 3 mM EDTA, 0.005% P20); EMSA: 5 nM RNA, protein buffer (40 mM Bis-Tris pH 7, 150 mM NaCl, 2 mM DTT presumed), 4% glycerol, 30 ug/mL yeast tRNA, RT; NMR: 150 mM NaCl, 20 mM Na phosphate pH 7.0, 5 mM DTT, 298 K; settings: protein: recombinant; label: 5' 32P (EMSA); biotin (SPR); imperfect hairpin, 26 bp with two bulges
[4] = target: T4, mStau2 dsRBD1-2 K59A; experiment: as above; settings: protein: recombinant; label: 5' 32P (EMSA); biotin (SPR); imperfect hairpin, 26 bp with two bulges
[5] = target: T5, mStau2 dsRBD1; experiment: SPR; up to 1 uM; SPR: HBS-EP (10 mM HEPES pH 7.4, 150 mM NaCl, 3 mM EDTA, 0.005% P20); EMSA: 5 nM RNA, protein buffer (40 mM Bis-Tris pH 7, 150 mM NaCl, 2 mM DTT presumed), 4% glycerol, 30 ug/mL yeast tRNA, RT; NMR: 150 mM NaCl, 20 mM Na phosphate pH 7.0, 5 mM DTT, 298 K; settings: protein: recombinant; label: 5' 32P (EMSA); biotin (SPR); imperfect hairpin, 26 bp with two bulges
[6] = target: T1, mStau2 dsRBD2; experiment: SPR; Hill n 1.1; text says 829 nM; SPR: HBS-EP (10 mM HEPES pH 7.4, 150 mM NaCl, 3 mM EDTA, 0.005% P20); EMSA: 5 nM RNA, protein buffer (40 mM Bis-Tris pH 7, 150 mM NaCl, 2 mM DTT presumed), 4% glycerol, 30 ug/mL yeast tRNA, RT; NMR: 150 mM NaCl, 20 mM Na phosphate pH 7.0, 5 mM DTT, 298 K; settings: protein: recombinant; label: 5' 32P (EMSA); biotin (SPR); imperfect hairpin, 26 bp with two bulges
[7] = target: T6, mStau2 dsRBD1-4; experiment: SPR; Hill n 1.7; text says 330 nM; SPR: HBS-EP (10 mM HEPES pH 7.4, 150 mM NaCl, 3 mM EDTA, 0.005% P20); EMSA: 5 nM RNA, protein buffer (40 mM Bis-Tris pH 7, 150 mM NaCl, 2 mM DTT presumed), 4% glycerol, 30 ug/mL yeast tRNA, RT; NMR: 150 mM NaCl, 20 mM Na phosphate pH 7.0, 5 mM DTT, 298 K; settings: protein: recombinant; tags: HisSUMO removed; label: 5' 32P (EMSA); biotin (SPR); imperfect hairpin, 26 bp with two bulges

| Binder | Kd [1] [nM] | Kd [2] [nM] | Kd [3] [nM] | Kd [4] [nM] | binding result [5] | Kd [6] [nM] | Kd [7] [nM] |
| --- | --- | --- | --- | --- | --- | --- | --- |
| B1 | 650 ± 247 | 497 ± 238 | – | – | – | – | – |
| B2 | – | – | 499 ± 149 | 624 ± 142 | no binding | 828 ± 29 | 287 ± 127 |
